Measurements from patent publication US20140363428A1 (Chugai, published 2014).

What follows are binders tested against T1, soluble human FcRn (heterodimer of FcRn alpha chain and beta2-microglobulin) (human, UniProt P55899 24-297; P61769 21-119) (assay: SPR Biacore T100, antibody captured via protein L, hFcRn analyte, pH 7.0, 25 C;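 note: KD derived from kinetic ka and kd fits of sensorgrams, CM4 sensor chip, sodium phosphate NaCl Tween20 running buffer, buffer-only injection used as reference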).
T1 construct: Expressed in HEK293H and purified on IgG Sepharose; also called hFcRn
T1 sequence (P55899 24-297 limits assumed, chain 1 of 2): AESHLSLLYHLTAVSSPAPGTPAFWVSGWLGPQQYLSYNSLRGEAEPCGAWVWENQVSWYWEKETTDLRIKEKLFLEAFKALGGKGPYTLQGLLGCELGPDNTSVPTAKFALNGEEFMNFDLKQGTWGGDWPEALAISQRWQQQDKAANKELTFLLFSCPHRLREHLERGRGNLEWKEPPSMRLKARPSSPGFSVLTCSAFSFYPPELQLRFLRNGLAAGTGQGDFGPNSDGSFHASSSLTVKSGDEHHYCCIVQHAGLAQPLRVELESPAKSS
T1 sequence (P61769 21-119 limits assumed, chain 2 of 2): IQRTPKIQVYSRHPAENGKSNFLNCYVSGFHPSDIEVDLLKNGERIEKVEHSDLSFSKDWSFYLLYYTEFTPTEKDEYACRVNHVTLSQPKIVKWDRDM
Experimental: An appropriate amount of protein L (ACTIGEN) was immobilized onto Sensor chip CM4 (GE Healthcare) by the amino coupling method, and the chip was allowed to capture an antibody of interest. Then, diluted FcRn solutions and running buffer (as a reference solution) were injected to allow human FcRn to interact with the antibody captured on the sensor chip. The running buffer used comprised 50 mmol/l sodium phosphate, 150 mmol/l NaCl, and 0.05% (w/v) Tween20 (pH 7.0). FcRn was diluted using each buffer. The chip was regenerated using 10 mmol/l glycine-HCl (pH 1.5). Assays were carried out exclusively at 25 degrees C. The association rate constant ka (1/Ms) and dissociation rate constant kd (1/s), both of which are kinetic parameters, were calculated based on the sensorgrams obtained in the assays, and KD (M) of each antibody for human FcRn was determined from these values. Each parameter was calculated using Biacore T100 Evaluation Software (GE Healthcare).

Binder	Kd [nM]
IgG1-F1113 (antibody, VH3-IgG1 with Fc substitutions (EU numbering) + L(WT)-CK) heavy: QVQLQESGPGLVKPSETLSLTCAVSGHSISHDHAWSWVRQPPGEGLEWIGFISYSGITNYNPSLQGRVTISRDNSKNTLYLQMNSLRAEDTAVYYCARSLARTTAMDYWGEGTLVTVSSASTKGPSVFPLAPSSKSTSGGTAALGCLVKDYFPEPVTVSWNSGALTSGVHTFPAVLQSSGLYSLSSVVTVPSSSLGTQTYICNVNHKPSNTKVDKKVEPKSCDKTHTCPPCPAPELLGGPSVFLFPPKPKDTLYISRTPEVTCVVVDVSHEDPEVKFNWYVDGVEVHNAKTKPREEQYNSTYRVVSVLTVLHQDWLNGKEYKCKVSNKALPAPIEKTISKAKGQPREPQVYTLPPSRDELTKNQVSLTCLVKGFYPSDIAVEWESNGQPENNYKTTPPVLDSDGSFFLYSKLTVDKSRWQQGNVFSCSVMHEALHYHVTQKDLSLSP light: not shown	120
IgG1-F1117 (antibody, VH3-IgG1 with Fc substitutions (EU numbering) + L(WT)-CK) heavy: QVQLQESGPGLVKPSETLSLTCAVSGHSISHDHAWSWVRQPPGEGLEWIGFISYSGITNYNPSLQGRVTISRDNSKNTLYLQMNSLRAEDTAVYYCARSLARTTAMDYWGEGTLVTVSSASTKGPSVFPLAPSSKSTSGGTAALGCLVKDYFPEPVTVSWNSGALTSGVHTFPAVLQSSGLYSLSSVVTVPSSSLGTQTYICNVNHKPSNTKVDKKVEPKSCDKTHTCPPCPAPELLGGPSVFLFPPKPKDVLYISRTPEVTCVVVDVSHEDPEVKFNWYVDGVEVHNAKTKPREEQYNSTYRVVSVLQVLHADWLNGKEYKCKVSNKALPAPIEKTISKAKGQPREPQVYTLPPSRDELTKNQVSLTCLVKGFYPSDIAVEWESNGQPENNYKTTPPVLDSDGSFFLYSKLTVDKSRWQQGNVFNCSVMHEALHYHVTQKSLSLSP light: not shown	49
IgG1-F1120 (antibody, VH3-IgG1 with Fc substitutions (EU numbering) + L(WT)-CK) heavy: QVQLQESGPGLVKPSETLSLTCAVSGHSISHDHAWSWVRQPPGEGLEWIGFISYSGITNYNPSLQGRVTISRDNSKNTLYLQMNSLRAEDTAVYYCARSLARTTAMDYWGEGTLVTVSSASTKGPSVFPLAPSSKSTSGGTAALGCLVKDYFPEPVTVSWNSGALTSGVHTFPAVLQSSGLYSLSSVVTVPSSSLGTQTYICNVNHKPSNTKVDKKVEPKSCDKTHTCPPCPAPELLGGPSVFLFPPKPKDVLYISRTPEVTCVVVDVSHEDPEVKFNWYVDGVEVHNAKTKPREEQYNSTYRVVSVLQPLHADWLNGKEYKCKVSNKALPAPIEKTISKAKGQPREPQVYTLPPSRDELTKNQVSLTCLVKGFYPSDIAVEWESNGQPENNYKTTPPVLDSDGSFFLYSKLTVDKSRWQQGNVFRCSVMHEALHYHVTQKSLSLSP light: not shown	10
IgG1-F1122 (antibody, VH3-IgG1 with Fc substitutions (EU numbering) + L(WT)-CK) heavy: QVQLQESGPGLVKPSETLSLTCAVSGHSISHDHAWSWVRQPPGEGLEWIGFISYSGITNYNPSLQGRVTISRDNSKNTLYLQMNSLRAEDTAVYYCARSLARTTAMDYWGEGTLVTVSSASTKGPSVFPLAPSSKSTSGGTAALGCLVKDYFPEPVTVSWNSGALTSGVHTFPAVLQSSGLYSLSSVVTVPSSSLGTQTYICNVNHKPSNTKVDKKVEPKSCDKTHTCPPCPAPELLGGPSVFLFPPKPKDVLYISRTPEVTCVVVDVSHEDPEVKFNWYVDGVEVHNAKTKPREEQYNSTYRVVSVLQPLHADWLNGKEYKCKVSNKALPAPIEKTISKAKGQPREPQVYTLPPSRDELTKNQVSLTCLVKGFYPSDIAVEWESNGQPENNYKTTPPVLDSDGSFFLYSKLTVDKSRWQQGNVFSCSVMHEALHYHVTRKSLSLSP light: not shown	14
IgG1-F1116 (antibody, VH3-IgG1 with Fc substitutions (EU numbering) + L(WT)-CK) heavy: QVQLQESGPGLVKPSETLSLTCAVSGHSISHDHAWSWVRQPPGEGLEWIGFISYSGITNYNPSLQGRVTISRDNSKNTLYLQMNSLRAEDTAVYYCARSLARTTAMDYWGEGTLVTVSSASTKGPSVFPLAPSSKSTSGGTAALGCLVKDYFPEPVTVSWNSGALTSGVHTFPAVLQSSGLYSLSSVVTVPSSSLGTQTYICNVNHKPSNTKVDKKVEPKSCDKTHTCPPCPAPELLGGPSVFLFPPKPKDTLYISRTPEVTCVVVDVSHEDPEVKFNWYVDGVEVHNAKTKPREEQYNSTYRVVSVLQVLHADWLNGKEYKCKVSNKALPAPIEKTISKAKGQPREPQVYTLPPSRDELTKNQVSLTCLVKGFYPSDIAVEWESNGQPENNYKTTPPVLDSDGSFFLYSKLTVDKSRWQQGNVFNCSVMHEALHYHYTQKSLSLSP light: not shown	74
IgG1-F1119 (antibody, VH3-IgG1 with Fc substitutions (EU numbering) + L(WT)-CK) heavy: QVQLQESGPGLVKPSETLSLTCAVSGHSISHDHAWSWVRQPPGEGLEWIGFISYSGITNYNPSLQGRVTISRDNSKNTLYLQMNSLRAEDTAVYYCARSLARTTAMDYWGEGTLVTVSSASTKGPSVFPLAPSSKSTSGGTAALGCLVKDYFPEPVTVSWNSGALTSGVHTFPAVLQSSGLYSLSSVVTVPSSSLGTQTYICNVNHKPSNTKVDKKVEPKSCDKTHTCPPCPAPELLGGPSVFLFPPKPKDVLYISRTPEVTCVVVDVSHEDPEVKFNWYVDGVEVHNAKTKPREEQYNSTYRVVSVLQPLHADWLNGKEYKCKVSNKALPAPIEKTISKAKGQPREPQVYTLPPSRDELTKNQVSLTCLVKGFYPSDIAVEWESNGQPENNYKTTPPVLDSDGSFFLYSKLTVDKSRWQQGNEFSCSVMHEALHYHVTQKSLSLSP light: not shown	10
IgG1-F1114 (antibody, VH3-IgG1 with Fc substitutions (EU numbering) + L(WT)-CK) heavy: QVQLQESGPGLVKPSETLSLTCAVSGHSISHDHAWSWVRQPPGEGLEWIGFISYSGITNYNPSLQGRVTISRDNSKNTLYLQMNSLRAEDTAVYYCARSLARTTAMDYWGEGTLVTVSSASTKGPSVFPLAPSSKSTSGGTAALGCLVKDYFPEPVTVSWNSGALTSGVHTFPAVLQSSGLYSLSSVVTVPSSSLGTQTYICNVNHKPSNTKVDKKVEPKSCDKTHTCPPCPAPELLGGPSVFLFPPKPKDTLYISRTPEVTCVVVDVSHEDPEVKFNWYVDGVEVHNAKTKPREEQYNSTYRVVSVLTVLHQDWLNGKEYKCKVSNKALPAPIEKTISKAKGQPREPQVYTLPPSRDELTKNQVSLTCLVKGFYPSDIAVEWESNGQPENNYKTTPPVLDSDGSFFLYSKLTVDKSRWQQGNVFSCSVMHEALHYHVTQKQLSLSP light: not shown	130
IgG1-F1124 (antibody, VH3-IgG1 with Fc substitutions (EU numbering) + L(WT)-CK) heavy: QVQLQESGPGLVKPSETLSLTCAVSGHSISHDHAWSWVRQPPGEGLEWIGFISYSGITNYNPSLQGRVTISRDNSKNTLYLQMNSLRAEDTAVYYCARSLARTTAMDYWGEGTLVTVSSASTKGPSVFPLAPSSKSTSGGTAALGCLVKDYFPEPVTVSWNSGALTSGVHTFPAVLQSSGLYSLSSVVTVPSSSLGTQTYICNVNHKPSNTKVDKKVEPKSCDKTHTCPPCPAPELLGGPSVFLFPPKPKDVLYISRTPEVTCVVVDVSHEDPEVKFNWYVDGVEVHNAKTKPREEQYNSTYRVVSVLQPLHADWLNGKEYKCKVSNKALPAPIEKTISKAKGQPREPQVYTLPPSRDELTKNQVSLTCLVKGFYPSDIAVEWESNGQPENNYKTTPPVLDSDGSFFLYSKLTVDKSRWQQGNVFSCSVMHEALHYHVTRKELSLSP light: not shown	12
IgG1-F1118 (antibody, VH3-IgG1 with Fc substitutions (EU numbering) + L(WT)-CK) heavy: QVQLQESGPGLVKPSETLSLTCAVSGHSISHDHAWSWVRQPPGEGLEWIGFISYSGITNYNPSLQGRVTISRDNSKNTLYLQMNSLRAEDTAVYYCARSLARTTAMDYWGEGTLVTVSSASTKGPSVFPLAPSSKSTSGGTAALGCLVKDYFPEPVTVSWNSGALTSGVHTFPAVLQSSGLYSLSSVVTVPSSSLGTQTYICNVNHKPSNTKVDKKVEPKSCDKTHTCPPCPAPELLGGPSVFLFPPKPKDVLYISRTPEVTCVVVDVSHEDPEVKFNWYVDGVEVHNAKTKPREEQYNSTYRVVSVLQPLHADWLNGKEYKCKVSNKALPAPIEKTISKAKGQPREPQVYTLPPSRDELTKNQVSLTCLVKGFYPSDIAVEWESNGQPENNYKTTPPVLDSDGSFFLYSKLTVDKSRWQQGNVFNCSVMHEALHYHVTQKSLSLSP light: not shown	13
IgG1-F1115 (antibody, VH3-IgG1 with Fc substitutions (EU numbering) + L(WT)-CK) heavy: QVQLQESGPGLVKPSETLSLTCAVSGHSISHDHAWSWVRQPPGEGLEWIGFISYSGITNYNPSLQGRVTISRDNSKNTLYLQMNSLRAEDTAVYYCARSLARTTAMDYWGEGTLVTVSSASTKGPSVFPLAPSSKSTSGGTAALGCLVKDYFPEPVTVSWNSGALTSGVHTFPAVLQSSGLYSLSSVVTVPSSSLGTQTYICNVNHKPSNTKVDKKVEPKSCDKTHTCPPCPAPELLGGPSVFLFPPKPKDTLYISRTPEVTCVVVDVSHEDPEVKFNWYVDGVEVHNAKTKPREEQYNSTYRVVSVLTVLHQDWLNGKEYKCKVSNKALPAPIEKTISKAKGQPREPQVYTLPPSRDELTKNQVSLTCLVKGFYPSDIAVEWESNGQPENNYKTTPPVLDSDGSFFLYSKLTVDKSRWQQGNVFNCSVMHEALHYHVTQKSLSLSP light: not shown	130
IgG1-F1123 (antibody, VH3-IgG1 with Fc substitutions (EU numbering) + L(WT)-CK) heavy: QVQLQESGPGLVKPSETLSLTCAVSGHSISHDHAWSWVRQPPGEGLEWIGFISYSGITNYNPSLQGRVTISRDNSKNTLYLQMNSLRAEDTAVYYCARSLARTTAMDYWGEGTLVTVSSASTKGPSVFPLAPSSKSTSGGTAALGCLVKDYFPEPVTVSWNSGALTSGVHTFPAVLQSSGLYSLSSVVTVPSSSLGTQTYICNVNHKPSNTKVDKKVEPKSCDKTHTCPPCPAPELLGGPSVFLFPPKPKDVLYISRTPEVTCVVVDVSHEDPEVKFNWYVDGVEVHNAKTKPREEQYNSTYRVVSVLQPLHADWLNGKEYKCKVSNKALPAPIEKTISKAKGQPREPQVYTLPPSRDELTKNQVSLTCLVKGFYPSDIAVEWESNGQPENNYKTTPPVLDSDGSFFLYSKLTVDKSRWQQGNVFSCSVMHEALHYHVTQKELSLSP light: not shown	9.5
IgG1-F1121 (antibody, VH3-IgG1 with Fc substitutions (EU numbering) + L(WT)-CK) heavy: QVQLQESGPGLVKPSETLSLTCAVSGHSISHDHAWSWVRQPPGEGLEWIGFISYSGITNYNPSLQGRVTISRDNSKNTLYLQMNSLRAEDTAVYYCARSLARTTAMDYWGEGTLVTVSSASTKGPSVFPLAPSSKSTSGGTAALGCLVKDYFPEPVTVSWNSGALTSGVHTFPAVLQSSGLYSLSSVVTVPSSSLGTQTYICNVNHKPSNTKVDKKVEPKSCDKTHTCPPCPAPELLGGPSVFLFPPKPKDVLYISRTPEVTCVVVDVSHEDPEVKFNWYVDGVEVHNAKTKPREEQYNSTYRVVSVLQPLHADWLNGKEYKCKVSNKALPAPIEKTISKAKGQPREPQVYTLPPSRDELTKNQVSLTCLVKGFYPSDIAVEWESNGQPENNYKTTPPVLDSDGSFFLYSKLTVDKSRWQQGNEFRCSVMHEALHYHVTQKSLSLSP light: not shown	10
